Test results as given in patent US20240034813A1 (Janssen / Centocor, published 2024).

Experiments:
[1] = molecular target: T1, recombinant human EGFR/ErbB1/HER1 with C-terminal His tag, Cy5-labeled (human, UniProt P00533 25-645, Cy5 label (reacted with Cy5 Mono NHS Ester; sites not stated)); experiment: competitive TR-FRET (Eu-amivantamab/Cy5-EGFR), EC50 ratio vs Reference Material; Ex. 11 drug product, 3 months at 5 C
T1 construct: Commercial protein; also called Cy5-EGFR; Cy5-labeled EGFR antigen; not shown: C-terminal His tag
Text: (§1) In this procedure, varying concentrations of unlabeled bispecific EGFR-cMet antibody sample compete with donor fluorophore (Europium (Eu) chelate) labeled bispecific EGFR-cMet antibody for binding to an acceptor fluorophore (Cy5)-labeled EGFR antigen. Excitation of the donor fluorophore results in a transfer of energy to the bound acceptor fluorophore (FRET process). The resultant FRET is detected by emission of light at 665 nm using a microplate reader capable of measuring time-resolved fluorescence. Sample dose response curves are compared to the RM.
(§2) EGFR Binding Materials and Methods. Certified commercial EGFR, a recombinant human EGFR/ErbB1/HER1 with C-terminal His tag is reacted with certified commercial Cy5 Mono NHS Ester to produce Cy5-labeled EGFR. Validated bispecific EGFR-cMet antibody is reacted with certified commercial Europium (Eu) chelate to produce Eu-labeled bispecific EGFR-cMet antibody. […] Fluorescence is then measured by spectrophotometry at 665 nm, plotted against antibody concentration and analyzed by a four-parameter logistic model. The antibody concentration required to obtain half of the maximum fluorescence response (EC50) is determined for RM, assay control and samples. The potencies of assay control and samples are calculated based on the ratio of the sample (or control) and RM EC50 values and reported as a percentage activity relative to the RM.

[2] = molecular target: T2, recombinant cMet/HGFR with c-terminal His-tag, Cy5-labeled (UniProt P08581 25-932, limits assumed, Cy5 label (reacted with Cy5 Mono NHS Ester; sites not stated)); experiment: competitive TR-FRET (Eu-amivantamab/Cy5-c-MET), EC50 ratio vs Reference Material; Ex. 11 drug product, 0 months, 5 C table
T2 construct: Commercial protein; also called Cy5-c-MET; Cy5-labeled c-MET antigen; not shown: C-terminal His-tag
Text: as §1, with “(Cy5)-labeled c-MET” for “(Cy5)-labeled EGFR”, “the Reference Material (RM).” for “the RM.”
as §2, with “c-MET Binding” for “EGFR Binding”, “commercial cMet,” for “commercial EGFR,”, “recombinant cMet/HGFR” for “recombinant human EGFR/ErbB1/HER1”, “with c-terminal His-tag” for “with C-terminal His tag”, “Cy5-labeled c-MET.” for “Cy5-labeled EGFR.”, “produce Eu labeled” for “produce Eu-labeled”

[3] = molecular target: T1, recombinant human EGFR/ErbB1/HER1 with …; experiment: competitive TR-FRET (Eu-amivantamab/Cy5-EGFR), EC50 ratio vs Reference Material; Ex. 2 Formulation 3 (acetate), 3 months at 40 C
Text: as §1, §2

[4] = molecular target: T1, recombinant human EGFR/ErbB1/HER1 with …; experiment: competitive TR-FRET (Eu-amivantamab/Cy5-EGFR), EC50 ratio vs Reference Material; Ex. 2 Formulation 1 (10 mM histidine), T0, 40 C table
Text: as §1, §2

[5] = molecular target: T1, recombinant human EGFR/ErbB1/HER1 with …; experiment: competitive TR-FRET (Eu-amivantamab/Cy5-EGFR), EC50 ratio vs Reference Material; Ex. 2 Formulation 2 (50 mM histidine), 3 months at 25 C
Text: as §1, §2

[6] = molecular target: T2, recombinant cMet/HGFR with c-terminal …; experiment: competitive TR-FRET (Eu-amivantamab/Cy5-c-MET), EC50 ratio vs Reference Material; Ex. 12 drug product with rHuPH20, 0 months, 25 C table
Text: as §1, with “(Cy5)-labeled c-MET” for “(Cy5)-labeled EGFR”, “the Reference Material (RM).” for “the RM.”
as §2, with “c-MET Binding” for “EGFR Binding”, “commercial cMet,” for “commercial EGFR,”, “recombinant cMet/HGFR” for “recombinant human EGFR/ErbB1/HER1”, “with c-terminal His-tag” for “with C-terminal His tag”, “Cy5-labeled c-MET.” for “Cy5-labeled EGFR.”, “produce Eu labeled” for “produce Eu-labeled”

[7] = molecular target: T2, recombinant cMet/HGFR with c-terminal …; experiment: competitive TR-FRET (Eu-amivantamab/Cy5-c-MET), EC50 ratio vs Reference Material; Ex. 2 Formulation 2 (50 mM histidine), 3 months at 40 C
Text: as §1, with “(Cy5)-labeled c-MET” for “(Cy5)-labeled EGFR”, “the Reference Material (RM).” for “the RM.”
as §2, with “c-MET Binding” for “EGFR Binding”, “commercial cMet,” for “commercial EGFR,”, “recombinant cMet/HGFR” for “recombinant human EGFR/ErbB1/HER1”, “with c-terminal His-tag” for “with C-terminal His tag”, “Cy5-labeled c-MET.” for “Cy5-labeled EGFR.”, “produce Eu labeled” for “produce Eu-labeled”

[8] = molecular target: T2, recombinant cMet/HGFR with c-terminal …; experiment: competitive TR-FRET (Eu-amivantamab/Cy5-c-MET), EC50 ratio vs Reference Material; Ex. 3 acetate formulation, 6 months at 25 C then 5 freeze/thaw cycles
Text: as §1, with “(Cy5)-labeled c-MET” for “(Cy5)-labeled EGFR”, “the Reference Material (RM).” for “the RM.”
as §2, with “c-MET Binding” for “EGFR Binding”, “commercial cMet,” for “commercial EGFR,”, “recombinant cMet/HGFR” for “recombinant human EGFR/ErbB1/HER1”, “with c-terminal His-tag” for “with C-terminal His tag”, “Cy5-labeled c-MET.” for “Cy5-labeled EGFR.”, “produce Eu labeled” for “produce Eu-labeled”

B1: amivantamab (bispecific antibody, human IgG1, kappa)
heavy 1: not shown
light 1: not shown
heavy 2: not shown
light 2: DIQMTQSPSSVSASVGDRVTITCRASQGISNWLAWFQHKPGKAPKLLIYAASSLLSGVPSRFSGSGSGTDFTLTISSLQPEDFATYYCQQANSFPITFGQGTRLEIKRTVAAPSVFIFPPSDEQLKSGTASVVCLLNNFYPREAKVQWKVDNALQSGNSQESVTEQDSKDSTYSLSSTLTLSKADYEKHKVYACEVTHQGLSSPVTKSFNRGEC
notes: The samples tested were high concentration (160 mg/mL) formulations, fresh or stored or stressed; also called JNJ-61186372; bispecific EGFR-cMet antibody
[1]
  EGFR Binding activity relative to Reference Material (%): 74%
[2]
  cMET Binding activity relative to Reference Material (%): 85%
[3]
  EGFR Binding % activity relative to RM: 46%
[4]
  EGFR Binding % activity relative to RM: 103%
[5]
  EGFR Binding % activity relative to RM: 77%
[6]
  cMET Binding activity relative to Reference Material (%): 91%
[7]
  cMET Binding % activity relative to RM: 77%
[8]
  cMET Binding % activity relative to RM: 84%
